Measurements taken from IntAct's records for PubMed 31515488.
One block for each substance: values may come before it.

Key:
[1] = molecular target: tcl1a_human TCL1A (UniProt P56279)
[2] = molecular target: inca1_human INCA1 (UniProt Q0VD86)
[3] = molecular target: cep76_human CEP76 (UniProt Q8TAP6)
[4] = molecular target: itf2_human TCF4 (UniProt P15884)
[5] = molecular target: T1, magd1_human MAGED1 (UniProt Q9Y5V3)
T1 sequence: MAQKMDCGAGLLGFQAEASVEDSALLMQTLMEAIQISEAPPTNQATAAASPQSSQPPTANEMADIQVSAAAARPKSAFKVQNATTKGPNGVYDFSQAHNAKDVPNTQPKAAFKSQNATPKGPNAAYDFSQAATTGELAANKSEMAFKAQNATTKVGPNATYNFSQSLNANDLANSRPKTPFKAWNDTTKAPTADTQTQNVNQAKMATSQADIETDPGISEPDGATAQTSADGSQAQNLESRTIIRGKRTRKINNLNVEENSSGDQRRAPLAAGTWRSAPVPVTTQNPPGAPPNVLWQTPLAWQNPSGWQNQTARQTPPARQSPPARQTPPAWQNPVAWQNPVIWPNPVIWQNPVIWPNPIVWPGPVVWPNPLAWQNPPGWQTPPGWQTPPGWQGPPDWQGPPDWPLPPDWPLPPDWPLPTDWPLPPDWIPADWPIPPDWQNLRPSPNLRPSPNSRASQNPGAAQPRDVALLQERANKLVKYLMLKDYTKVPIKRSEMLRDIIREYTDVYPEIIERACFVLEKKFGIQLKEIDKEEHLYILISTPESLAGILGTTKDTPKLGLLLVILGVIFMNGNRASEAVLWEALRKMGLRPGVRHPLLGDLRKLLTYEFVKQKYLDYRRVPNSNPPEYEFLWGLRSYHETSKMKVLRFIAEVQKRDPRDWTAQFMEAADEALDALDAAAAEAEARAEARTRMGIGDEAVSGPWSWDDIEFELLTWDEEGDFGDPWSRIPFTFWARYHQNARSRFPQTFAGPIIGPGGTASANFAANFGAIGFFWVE

[6] = molecular target: mlh1_human MLH1 (UniProt P40692)
[7] = molecular target: nmna1_human NMNAT1 (UniProt Q9HAN9)
[8] = molecular target: T2, srtd3_human SERTAD3 (UniProt Q9UJW9)
T2 sequence: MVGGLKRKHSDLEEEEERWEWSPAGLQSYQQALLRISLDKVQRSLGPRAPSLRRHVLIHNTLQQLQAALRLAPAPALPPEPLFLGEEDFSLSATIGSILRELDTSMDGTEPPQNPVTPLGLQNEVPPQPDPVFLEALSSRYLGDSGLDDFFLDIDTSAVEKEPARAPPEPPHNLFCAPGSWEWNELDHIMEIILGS

[9] = molecular target: T3, neca2_human NECAB2 (UniProt Q7Z6G3)
T3 sequence: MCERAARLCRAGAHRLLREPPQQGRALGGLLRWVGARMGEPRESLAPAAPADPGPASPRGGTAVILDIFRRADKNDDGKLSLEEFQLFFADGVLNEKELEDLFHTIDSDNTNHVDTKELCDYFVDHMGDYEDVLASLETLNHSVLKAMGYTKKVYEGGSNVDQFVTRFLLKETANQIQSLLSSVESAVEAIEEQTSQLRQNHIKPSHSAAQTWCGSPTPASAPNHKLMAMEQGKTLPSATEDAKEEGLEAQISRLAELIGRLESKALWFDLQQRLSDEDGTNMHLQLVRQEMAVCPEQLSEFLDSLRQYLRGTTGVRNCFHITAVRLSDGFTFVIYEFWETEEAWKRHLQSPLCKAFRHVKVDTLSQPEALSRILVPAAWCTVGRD

[10] = molecular target: vps29_human VPS29 (UniProt Q9UBQ0)
[11] = molecular target: traf1_human TRAF1 (UniProt Q13077)

Substance: "DNA (cytosine-5)-methyltransferase 3A" (Homo sapiens) (from UniProt Q9Y6K1) E30A
effect of a mutation on the interaction [1]: with no effect

Substance: "DNA (cytosine-5)-methyltransferase 3A" (Homo sapiens) (from UniProt Q9Y6K1) V372I
effect of a mutation on the interaction [1]: with no effect

Substance: Calcium-binding protein 5 (Homo sapiens), Q9NP86 G73S
effect of a mutation on the interaction [2]: with no effect
effect of a mutation on the interaction [3]: with no effect
effect of a mutation on the interaction [4]: with no effect

Substance: Calcium-binding protein 5 (Homo sapiens), Q9NP86 T65R
effect of a mutation on the interaction [2]: with no effect
effect of a mutation on the interaction [3]: with no effect
effect of a mutation on the interaction [4]: disrupting interaction strength

Substance: Importin subunit alpha-1 (Homo sapiens) (from UniProt P52292) P216S
effect of a mutation on the interaction [5]: with no effect
effect of a mutation on the interaction [6]: with no effect
effect of a mutation on the interaction [7]: with no effect
effect of a mutation on the interaction [8]: with no effect
effect of a mutation on the interaction [9]: with no effect

Substance: Importin subunit alpha-1 (Homo sapiens) (from UniProt P52292) R117W
effect of a mutation on the interaction [5]: with no effect
effect of a mutation on the interaction [6]: with no effect
effect of a mutation on the interaction [7]: with no effect
effect of a mutation on the interaction [8]: with no effect
effect of a mutation on the interaction [9]: with no effect

Substance: Importin subunit alpha-1 (Homo sapiens) (from UniProt P52292) V506I
effect of a mutation on the interaction [5]: with no effect
effect of a mutation on the interaction [7]: with no effect
effect of a mutation on the interaction [8]: with no effect
effect of a mutation on the interaction [9]: with no effect

Substance: Vacuolar protein sorting-associated protein 35 (Homo sapiens) (from UniProt Q96QK1) L227F
effect of a mutation on the interaction [10]: with no effect

Substance: Vacuolar protein sorting-associated protein 35 (Homo sapiens) (from UniProt Q96QK1) R524W
effect of a mutation on the interaction [10]: with no effect

Substance: Zinc finger protein 502 (Homo sapiens), Q8TBZ5 E243A
effect of a mutation on the interaction [11]: with no effect

Substance: Zinc finger protein 502 (Homo sapiens), Q8TBZ5 T184A
effect of a mutation on the interaction [11]: with no effect

Results, then the substance that gave them:

effect of a mutation on the interaction [1]: with no effect
Substance: "DNA (cytosine-5)-methyltransferase 3A" (Homo sapiens) (from UniProt Q9Y6K1) N501S

effect of a mutation on the interaction [1]: disrupting interaction strength
Substance: "DNA (cytosine-5)-methyltransferase 3A" (Homo sapiens) (from UniProt Q9Y6K1) P904L

effect of a mutation on the interaction [2]: with no effect
effect of a mutation on the interaction [3]: with no effect
effect of a mutation on the interaction [4]: with no effect
Substance: Calcium-binding protein 5 (Homo sapiens), Q9NP86 R44Q

effect of a mutation on the interaction [2]: with no effect
effect of a mutation on the interaction [3]: with no effect
effect of a mutation on the interaction [4]: with no effect
Substance: Calcium-binding protein 5 (Homo sapiens), Q9NP86 V128A

effect of a mutation on the interaction [5]: with no effect
effect of a mutation on the interaction [6]: with no effect
effect of a mutation on the interaction [7]: with no effect
effect of a mutation on the interaction [8]: with no effect
effect of a mutation on the interaction [9]: with no effect
Substance: Importin subunit alpha-1 (Homo sapiens) (from UniProt P52292) N86S

effect of a mutation on the interaction [5]: with no effect
effect of a mutation on the interaction [6]: with no effect
effect of a mutation on the interaction [7]: with no effect
effect of a mutation on the interaction [8]: with no effect
effect of a mutation on the interaction [9]: with no effect
Substance: Importin subunit alpha-1 (Homo sapiens) (from UniProt P52292) R117Q

effect of a mutation on the interaction [5]: with no effect
effect of a mutation on the interaction [7]: with no effect
effect of a mutation on the interaction [8]: with no effect
effect of a mutation on the interaction [9]: with no effect
Substance: Importin subunit alpha-1 (Homo sapiens) (from UniProt P52292) V506D

effect of a mutation on the interaction [10]: with no effect
Substance: Vacuolar protein sorting-associated protein 35 (Homo sapiens) (from UniProt Q96QK1) D620N

effect of a mutation on the interaction [11]: with no effect
Substance: Zinc finger protein 502 (Homo sapiens), Q8TBZ5 Q174R
